Source: publication PMC10349104
Several values for one entry are separate records, joined by “and”; a condition that tells them apart may be missing. Equal entries are not always repeated.

What was measured:
Experiment in all cases: SPR
[1] = target: EVA-A(Y44A) (A. americanum)
[2] = target: EVA-A(1-98) (A. americanum)
[3] = target: EVA-A(Y44A) (Amblyomma americanum)
[4] = target: EVA-A(L39P) (A. americanum)
[5] = target: EVA-A(DC) (Amblyomma americanum)
[6] = target: EVA-A(L39P) (Amblyomma americanum)
[7] = target: EVA-A(21-102) (A. americanum)
[8] = target: EVA-A(DN) (Amblyomma americanum)
[9] = target: EVA-A(C8) (A. americanum)

Sequence of CCL2 (P13500 24-99): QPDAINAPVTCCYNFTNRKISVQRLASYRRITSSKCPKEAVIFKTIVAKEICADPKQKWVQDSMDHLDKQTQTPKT
Sequence of CCL1 (P22362 24-96): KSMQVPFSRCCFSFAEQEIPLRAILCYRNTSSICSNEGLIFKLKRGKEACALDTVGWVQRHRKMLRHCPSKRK
Sequence of CCL23 (P55773 22-120): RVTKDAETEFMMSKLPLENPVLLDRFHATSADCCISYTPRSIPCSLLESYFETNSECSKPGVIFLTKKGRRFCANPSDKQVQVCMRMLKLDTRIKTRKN
Sequence of CCL27 (Q9Y4X3 25-112): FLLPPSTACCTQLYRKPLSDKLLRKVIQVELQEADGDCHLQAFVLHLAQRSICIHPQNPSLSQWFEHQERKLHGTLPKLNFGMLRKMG
Sequence of CCL7 (P80098 24-99): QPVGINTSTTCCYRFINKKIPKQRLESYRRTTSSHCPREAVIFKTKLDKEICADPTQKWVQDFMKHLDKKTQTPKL
Sequence of CCL15 (Q16663 22-113): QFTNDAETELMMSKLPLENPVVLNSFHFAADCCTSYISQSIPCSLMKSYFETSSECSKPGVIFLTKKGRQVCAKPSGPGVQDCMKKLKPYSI
Sequence of CCL14 (Q16627 20-93): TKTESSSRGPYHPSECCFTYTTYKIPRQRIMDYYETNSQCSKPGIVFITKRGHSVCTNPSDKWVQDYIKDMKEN

Row | Substance | Kd [1] | koff [1] | kon [1] | Kd [2] | koff [2] | kon [2] | Kd [3] | Kd [4] | koff [4] | kon [4] | Kd [6] | koff [6] | kon [6] | Kd [7] | koff [7] | kon [7] | Kd [9] | other results
1 | CCL1 (from UniProt P22362 24-96) (ligand) | 49.9 nM | 0.00256 s⁻¹ | 57000 M⁻¹ s⁻¹ | 406 nM | 0.00168 s⁻¹ | 6000 M⁻¹ s⁻¹ | 30.2 nM and 67.9 nM and 51.6 nM | 57.5 nM | 0.00167 s⁻¹ | 17000 M⁻¹ s⁻¹ | 44.7 nM and 48.2 nM and 79.6 nM | 0.000863 s⁻¹ and 0.00063 s⁻¹ and 0.00153 s⁻¹ | 19300 M⁻¹ s⁻¹ and 13100 M⁻¹ s⁻¹ and 19200 M⁻¹ s⁻¹ | 457 nM | 0.18 s⁻¹ | 268000 M⁻¹ s⁻¹ |  | koff [3]: 0.00285 s⁻¹ and 0.00348 s⁻¹ and 0.00135 s⁻¹; Kd [5]: 327 nM and 241 nM and 650 nM; koff [5]: 0.00168 s⁻¹ and 0.00255 s⁻¹ and 0.00199 s⁻¹; Kd [8]: 686 nM and 369 nM and 318 nM
2 | CCL2 (from UniProt P13500 24-99) (ligand) | 123 nM | 0.032 s⁻¹ | 291000 M⁻¹ s⁻¹ |  |  |  | 109 nM and 191 nM and 70 nM | 24.9 nM | 0.036 s⁻¹ | 329000 M⁻¹ s⁻¹ | 25.6 nM and 20.7 nM and 28.4 nM | 0.00858 s⁻¹ and 0.00729 s⁻¹ and 0.00847 s⁻¹ | 335000 M⁻¹ s⁻¹ and 353000 M⁻¹ s⁻¹ and 298000 M⁻¹ s⁻¹ |  |  |  |  | 
3 | CCL7 (from UniProt P80098 24-99) (ligand) |  |  |  | 1010 nM |  |  | 4.63 nM and 5.4 nM and 4.4 nM |  |  |  |  |  |  |  |  |  | 765 nM | 
4 | CCL11(F11A) (from UniProt P51671 24-97) (ligand) | 2.83 nM | 0.00226 s⁻¹ | 802000 M⁻¹ s⁻¹ |  |  |  | 2.64 nM and 2.95 nM and 2.91 nM | 0.51 nM | 0.00035 s⁻¹ | 707000 M⁻¹ s⁻¹ | 0.424 nM and 0.602 nM and 0.499 nM | 0.000383 s⁻¹ and 0.000365 s⁻¹ and 0.000304 s⁻¹ | 904000 M⁻¹ s⁻¹ and 606000 M⁻¹ s⁻¹ and 610000 M⁻¹ s⁻¹ |  |  |  |  | koff [3]: 0.00233 1/s (2×) and 0.00213 1/s; kon [3]: 884000 M⁻¹ s⁻¹ and 722000 M⁻¹ s⁻¹ and 801000 M⁻¹ s⁻¹
5 | CCL14 (from UniProt Q16627 20-93) (ligand) | 0.11 nM | 5e-05 s⁻¹ | 481000 M⁻¹ s⁻¹ | < 0.1 nM | < 0.0001 s⁻¹ | 239000 M⁻¹ s⁻¹ |  | 0.04 nM | 0.00013 s⁻¹ | 2.41e+06 M⁻¹ s⁻¹ |  |  |  | 0.11 nM | 8e-05 s⁻¹ | 703000 M⁻¹ s⁻¹ | 1.3 nM | koff [9]: 0.00048 s⁻¹; kon [9]: 386000 M⁻¹ s⁻¹
6 | CCL14 (ligand) |  |  |  |  |  |  |  |  |  |  |  |  |  |  |  |  |  | kon [5]: 206000 M⁻¹ s⁻¹ and 297000 M⁻¹ s⁻¹ and 214000 M⁻¹ s⁻¹
7 | CCL15 (from UniProt Q16663 22-113) (ligand) | 161 nM | 0.0117 s⁻¹ | 79000 M⁻¹ s⁻¹ | 31.7 nM | 0.00162 s⁻¹ | 53000 M⁻¹ s⁻¹ |  | 26.6 nM | 0.00467 s⁻¹ | 102000 M⁻¹ s⁻¹ |  |  |  | 34 nM | 0.00214 s⁻¹ | 63000 M⁻¹ s⁻¹ | 577 nM | koff [9]: 0.0127 s⁻¹; kon [9]: 22000 M⁻¹ s⁻¹
8 | CCL15 (ligand) |  |  |  |  |  |  |  |  |  |  |  |  |  |  |  |  |  | Kd [5]: 30.9 nM and 32.9 nM and 31.2 nM; koff [5]: 0.00162 s⁻¹ and 0.00173 s⁻¹ and 0.00167 s⁻¹; kon [5]: 52500 M⁻¹ s⁻¹ and 52700 M⁻¹ s⁻¹ and 53700 M⁻¹ s⁻¹
9 | CCL16(L19A) (from UniProt O15467 24-120) (ligand) | 15.9 nM | 0.00151 s⁻¹ | 107000 M⁻¹ s⁻¹ |  |  |  | 25.2 nM and 12.3 nM and 10.2 nM | 1.53 nM | 0.00085 s⁻¹ | 560000 M⁻¹ s⁻¹ | 1.54 nM and 1.52 nM (2×) | 0.000757 s⁻¹ and 0.000893 s⁻¹ and 0.000913 s⁻¹ | 492000 M⁻¹ s⁻¹ and 588000 M⁻¹ s⁻¹ and 599000 M⁻¹ s⁻¹ |  |  |  |  | koff [3]: 0.00171 s⁻¹ and 0.00134 s⁻¹ and 0.00147 s⁻¹; kon [3]: 68100 M⁻¹ s⁻¹ and 109000 M⁻¹ s⁻¹ and 144000 M⁻¹ s⁻¹
10 | CCL23 (from UniProt P55773 22-120) (ligand) | 18.8 nM | 0.00176 s⁻¹ | 100000 M⁻¹ s⁻¹ | 0.45 nM | 2e-05 s⁻¹ | 144000 M⁻¹ s⁻¹ |  | 1.14 nM | 0.00067 s⁻¹ | 140000 M⁻¹ s⁻¹ |  |  |  | 0.51 nM | 4e-05 s⁻¹ | 87000 M⁻¹ s⁻¹ | 20.3 nM | koff [9]: 0.00131 s⁻¹; kon [9]: 74000 M⁻¹ s⁻¹
11 | CCL27 (from UniProt Q9Y4X3 25-112) (ligand) | 110 nM | 0.00639 s⁻¹ | 52000 M⁻¹ s⁻¹ | 41.7 nM | 0.00409 s⁻¹ | 95000 M⁻¹ s⁻¹ | 59.4 nM and 191 nM and 78.8 nM | 63.9 nM | 0.00309 s⁻¹ | 45000 M⁻¹ s⁻¹ | 48.2 nM and 78.8 nM and 64.7 nM | 0.00218 s⁻¹ and 0.00268 s⁻¹ and 0.00356 s⁻¹ | 45300 M⁻¹ s⁻¹ and 34000 M⁻¹ s⁻¹ and 55000 M⁻¹ s⁻¹ |  |  |  |  | kon [3]: 51200 M⁻¹ s⁻¹ and 70200 M⁻¹ s⁻¹ and 34000 M⁻¹ s⁻¹; Kd [5]: 36.9 nM and 53 nM and 35.3 nM; koff [5]: 0.00409 s⁻¹ and 0.00367 s⁻¹ and 0.0037 s⁻¹; kon [5]: 111000 M⁻¹ s⁻¹ and 69300 M⁻¹ s⁻¹ and 105000 M⁻¹ s⁻¹
